The results in this text go back to patent publication US20150119554A1.

Assay [1] addresses antigen of the ScFv (Example 1). The experiment in a line: spotted films, Alexa647-labelled pure antigen, fluorescence; reference ScFv alone.
For assay [2], the target named is antigen of scFv1 (Example 6). In words: microarray of spotted films, 10 nM biotinylated antigen, Alexa-647-labeled streptavidin, spot intensity; reference scFv1 control.

B1: His6ScFvRep4CT (scFv)
chain: MGSSGHHHHHHMEVQLLESGGGLVQPGGSLRLSCAASGFTFSSYEMNWVRQAPGKGLEWVSGISGSGGFTYYADSVKGRFTISRDNSKNTLYLQMNSLRAEDTAMYYCAREGYQDAFDIWGQGTLVTVSSGGGGSGGGGSGGGGSQSVLTQPPSASGTPGQRVTISCTGSSSNIGAGYDVHWYQQLPGTAPKLLIYSNNQRPSGVPDRFSGSKSGTSASLAISGLRSEDEADYYCAAWDDSLSGPPCVFGGGTKLTVLGEQKLISEEDLSGSAAAGNSGQGGYGGLGQGGYGQGAGSSAAAAAAAAAAAAGGQGGQGQGGYGQGSGGSAAAAAAAAAAAAAAAGRGQGGYGQGSGGNAAAAAAAAAAAAAAAGQGGQGGYGRQSQGAGSAAAAAAAAAAAAAAGSGQGGYGGQGQGGYGQSSASASAAASAASTVANSVSRLSSPSAVSRVSSAVSSLVSNGQVNMAALPNIISNISSSVSASAPGASGCEVIVQALLEVITALVQIVSSSSVGYINPSAVNQITNVVANAMAQVMG
With B1, the fold more antigen bound compared to ScFv alone in assay [1] turned out to be 10 times.

B2: His6Rep4CTScFv (scFv)
chain: MHHHHHHGQGGYGGLGQGGYGQGAGSSAAAAAAAAAAAAGGQGGQGQGGYGQGSGGSAAAAAAAAAAAAAAAGRGQGGYGQGSGGNAAAAAAAAAAAAAAAGQGGQGGYGRQSQGAGSAAAAAAAAAAAAAAGSGQGGYGGQGQGGYGQSSASASAAASAASTVANSVSRLSSPSAVSRVSSAVSSLVSNGQVNMAALPNIISNISSSVSASAPGASGCEVIVQALLEVITALVQIVSSSSVGYINPSAVNQITNVVANAMAQVMGGNSEVQLLESGGGLVQPGGSLRLSCAASGFTFSSYEMNWVRQAPGKGLEWVSGISGSGGFTYYADSVKGRFTISRDNSKNTLYLQMNSLRAEDTAMYYCAREGYQDAFDIWGQGTLVTVSSGGGGSGGGGSGGGGSQSVLTQPPSASGTPGQRVTISCTGSSSNIGAGYDVHWYQQLPGTAPKLLIYSNNQRPSGVPDRFSGSKSGTSASLAISGLRSEDEADYYCAAWDDSLSGPPCVFGGGTKLTVLGEQKLISEEDLSGSAAA
Consider B2, for which, in assay [1], the fold more antigen bound compared to ScFv alone was greater than 10 times.

B3: His6-scFv1-NTCT (scFv)
chain: MGSSGHHHHHHMEVQLLESGGGLVQPGGSLRLSCAASGFTFSSYEMNWVRQAPGKGLEWVSGISGSGGFTYYADSVKGRFTISRDNSKNTLYLQMNSLRAEDTAMYYCAREGYQDAFDIWGQGTLVTVSSGGGGSGGGGSGGGGSQSVLTQPPSASGTPGQRVTISCTGSSSNIGAGYDVHWYQQLPGTAPKLLIYSNNQRPSGVPDRFSGSKSGTSASLAISGLRSEDEADYYCAAWDDSLSGPPWVFGGGTKLTVLGEQKLISEEDLSGSAAAGNSSHTTPWTNPGLAENFMNSFMQGLSSMPGFTASQLDDMSTIAQSMVQSIQSLAAQGRTSPNKLQALNMAFASSMAEIAASEEGGGSLSTKTSSIASAMSNAFLQTTGVVNQPFINEITQLVSMFAQAGMNDVSAGNSGIQGYGQSSASASAAASAASTVANSVSRLSSPSAVSRVSSAVSSLVSNGQVNMAALPNIISNISSSVSASAPGASGCEVIVQALLEVITALVQIVSSSSVGYINPSAVNQITNVVANAMAQVMG
Turning to B3, the fold increase of antigen recognition compared to the scFv1 control alone in assay [2] came to 25 times.
